# B1: BC (dsDNA)
# DNA 1: CCGGGCATGTCCGGGCATGTCCGGGCATGT
# DNA 2: ACATGCCCGGACATGCCCGGACATGCCCGG
# Target: p53 wild-type (Homo sapiens, UniProt P04637 SEQ:1-393)
# Assay: EMSA; binds quite efficiently; PAb421 stimulation +
# Conditions: chain copies: 4 inferred; label: 32P
# Method: Briefly the in vitro translated protein is incubated with a radioactively labeled oligonucleotide containing a p53 binding site in the presence of non-specific competitor DNA. The reaction mixture is incubated 20 min. at room temperature and directly loaded on a native 5% polyacrylamide electrophoresis gel. In this type of DNA binding assay free DNA migrates to the bottom of the gel, whereas p53/DNA complexes migrate more slowly.
# Sequence of p53 wild-type (P04637 whole entry): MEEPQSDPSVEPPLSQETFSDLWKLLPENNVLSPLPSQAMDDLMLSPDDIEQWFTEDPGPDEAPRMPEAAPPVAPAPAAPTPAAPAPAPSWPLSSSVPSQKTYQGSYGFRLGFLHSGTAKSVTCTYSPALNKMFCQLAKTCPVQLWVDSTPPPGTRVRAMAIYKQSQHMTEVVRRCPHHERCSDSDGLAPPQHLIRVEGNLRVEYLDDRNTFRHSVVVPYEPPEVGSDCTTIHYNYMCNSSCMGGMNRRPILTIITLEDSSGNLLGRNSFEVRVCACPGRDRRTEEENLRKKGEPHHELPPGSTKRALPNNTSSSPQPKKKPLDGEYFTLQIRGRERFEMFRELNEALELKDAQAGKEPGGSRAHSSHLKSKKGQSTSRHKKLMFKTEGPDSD
binder,measurement,value
B1,binding result,binds
